Columns and labels:
[1] = system: C3H 10T1/2(clone 8) cells; test: In vitro transformation assay (MCA-induced); type: cell-based; settings: for transformed foci in the dishes scored / Fraction of dishes containing transformed foci / No. of dishes with transformed foci/No. of dishes: MCA 1 μg/ml 24 hr, then conjugates 1.0 μg/ml for first three weeks; for Fraction of dishes containing transformed foci / No. of dishes with transformed foci/No. of dishes: scored at six weeks; for retention of the biological (anti-transformation) activity of BBI: 1.0 μg/ml
Protocol: Transformation assays were carried out using C3H 10T1/2(clone 8) cells according to the published recommendations [Reznikoff, C. A. et al. (1973) Cancer. Res. 33, 3239–3249; Reznikoff, C. A. et al. (1973) Cancer. Res. 33, 3231–3238]. Stock cultures of mycoplasma-free cells were maintained by passing 50,000 cells per 75 cm^2 flask every seven days. Using this schedule, the cells were always passed approximately 2 days before reaching confluence. The stock culture was grown in Eagle's basal medium supplemented with 10% FBS, penicillin (100 units), and streptomycin (100 μg) and used for the transformation assays at passages of 9 to 14. The cells were passed by treating the stock cells with trypsin (0.1%) in PBS for 5 min and quenching the trypsin with 5 ml of the medium. This procedure was adapted to minimize spontaneous transformation in the stock cultures and maximize the plating efficiency in the petri dishes. The FBS stock used in the cultures was pre-screened to ensure that the serum was able to support the expression and the growth of the transformed cells.
For the transformation assays, C3H 10T1/2 cells (1000/dish) were seeded into 60 mm petri dishes and allowed to grow in a humidified 5% CO2 atmosphere in Eagle's basal medium, supplemented with 10% FBS, penicillin (100 units), and streptomycin (100 μg), for 24 hr. Subsequently, the cells were initiated by treatment with 25 μl of the 3-methylcholanthrene (MCA) in acetone stock solution ([…]) to a final concentration of 1 μg/ml of MCA (5 μg/5 ml). The cells were allowed to grow in the presence of the carcinogen or solvent for 24 hr, and the medium in each dish was then replaced with fresh medium containing no carcinogen or solvent. The medium in the dishes was replaced twice per week for the first two weeks of the assay, and thereafter once a week for the remainder four weeks of the assay. In the experiments designed to determine the transformation inhibitory activity of the conjugates, the cells were maintained in the medium containing the conjugates (1 μg/ml) for the first three weeks of the assay; thereafter, the cells were maintained in medium containing no added conjugates.
Six weeks after the carcinogen treatment, the cells were inspected under a microscope for adherence to the culture dishes and were washed with PBS and then fixed in 100% methanol. The fixed monolayers were then stained with Giemsa stain. 20 dishes per group were treated in each experiment. In addition to the test groups, all the transformation assays contained at least three other groups: negative control (not treated with carcinogen or solvent), acetone control (treated with 25 μl of acetone), and positive control [treated with MCA (1 μg/ml) in 25 μl of acetone]. The transformed foci (>3 mm in diameter) in the plates were studied under a microscope and classified according to published guidelines as types I, II, or III [Landolph, J. R. (1985) Transfomatin assay of established cell lines: Mechanism and Application (ed. Kakunaga, T., and Yamasaki, H.) IARC Scientific Publications, Lyon, France pp. 185–201]. Briefly, type III foci were dense, multilayered, basophilic, areas of cell growth which stained to a deep blue color with Giemsa and had rough criss-crossed edges. Type II foci were also dense, multilayered, areas of cell growth, but were stained to a purple color with Giemsa and had smoother, more defined edges compared to Type III foci. Type I foci were not scored in the assay.
BBI, either as the free protein or in conjugated form to palmitic or oleic acid, was added to the cultures at 1.0 μg/ml for the first three weeks of the transformation assay period starting immediately after the MCA treatment. MCA-treated cells were exposed to 3-methylcholanthrene, dissolved in 25 /μl of acetone, at a concentration of 1 μg/ml for 24 hr. Acetone-treated cells were exposed to 25 μl of acetone for 24 hr only. […]

C3H 10T1/2 cells = test: Plating efficiency in conjunction with transformation assay; type: cell-based; settings: 200 cells/dish, 10 days; conjugates 1.0 μg/ml after MCA 1 μg/ml 24 hr
Protocol: The plating efficiency (PE) of the cells was also studied in conjunction with each of the transformation assays. To determine the PE of the cells in the different treatment groups, cells (200 cells/dish) were seeded into three 60-mm petri dishes per experiment group and treated in the identical manner as the transformation assay cells. The cells in these assays were terminated at 10 days, fixed with 100% methanol, and stained with giemsa; the colonies of 50 cells or more visible under a microscope were then counted. The plating efficiency is defined as the (number of colonies/number of cells seeded)*100.

[2] = system: Human colon carcinoma cells (Caco-2)
[3] = mouse, in vivo, iv, 3 mg/kg
Caco-2 monolayers = test: Transport of single- and multiple-conjugates across Caco-2 monolayers in transwells; type: cell-based, Human; settings: for order of the transport extent (cumulative transport): Caco-2 transwells, n=3
Protocol: Confluent cell monolayers, 2 to 3 weeks old, and having a TEER value of approximately 500 Ωcm^2, were first incubated with Dulbecco's MEM containing 1% of FBS for 30 min at 37° C. Subsequently, the incubation medium was removed, and the ^125I-BBI (10 μg/ml) conjugates in 1.5 ml of the medium was added to the apical chamber of the transwells. To the basal chamber, 2.5 ml of the medium was added and the transwells were incubated at 37° C. At predetermined times, the entire basal chamber medium (2.5 ml) from each transwell was removed and counted for radioactivity using a gamma counter. In each experiment, typically seven samples were taken at 1, 2, 3, 4, 5, 6 and 24 hr post-incubation. After the 24 hr samples were taken, the cell monolayers were rinsed three times with ice-cold PBS, cut out of the inserts, and counted for accumulated radioactivity using a gamma counter.
The integrity of the ^125I-BBI conjugates transported across the monolayers was studied using Sephadex G50 gel-filtration chromatography. Briefly, after the basal medium was sampled at 24 hr, 1.0 ml of the medium was centrifuged at 2000 rpm and then eluted from a G50 column (10 ml) using PBS; 1 ml fractions were collected and the fraction-associated radioactivity was determined using a gamma counter. Intact conjugates eluted at column void volume and fragments smaller than 1 kDa were eluted at or above the column volume.
In the transwell experiments, the conjugates were incubated with the apical side of the cells for 1 hr at 37° C. The transwells were then rinsed three times with ice-cold PBS and then reincubated with serum free medium. The release of the conjugates into the apical and the basal medium was chased for 24 hr by counting the entire basal or the apical medium at different times. The total counts obtained at the end of the chase period (transwells+media counts were added, and the release of the conjugates (% of total) at different times was calculated. To ensure that the counts obtained in the transwells at 24 hr were due to the presence of the conjugates in the cells and not non-specific binding to the plastic, the transwells were exposed to trypsin for 10 min, rinsed three times with ice-cold pbs, and subsequently counted for accumulated radioactivity.
BBI was modified with 2 or 4 palmitic acids, and the transport was determined in transwells. The cumulative transport of BBI, BBI modified with 4 palmitic acids, and BBI modified with 2 palmitic acids in Caco-2 monolayers were determined as BBI (ng/monolayer) ± SEM, n=3. The order of the transport extent was BBIssPal(4)>BBI>BBIssPal(2). The results of the internalization of the conjugates into the same cells were determined as the ng of BBI internalized per monolayer. […] The basal media obtained at 24 hr from the transwells was analyzed using a G50 column. […] However, a small, but significant, amount of the basal media of BBIssPal(2) consisted of intact conjugate. This quantity consisted of between about 10 and about 20% of the total radioactivity present in the basal medium.

With Cc1ccc2cc3c(ccc4ccccc43)c3c2c1CC3 [MCA, 3-methylcholanthrene, reference compound] the “transformed foci in the dishes scored” value [1] was 6 out of the 19 dishes scored contained type III foci, the “Fraction of dishes containing transformed foci” value (“Fraction” below) [1] was 0.32 and the “No. of dishes with transformed foci/No. of dishes” value (“No. of dishes” below) [1] was 6/19. For the same molecule, the “Plating Efficiency (%)” value (C3H 10T1/2 cells) was 21 ± 3.0%.

B1: BBIssPal: palmityl disulfide conjugate of BBI, made from thiolated BBI and Pal-PDC (conjugate, UniProt P01055 40-110, looked up)
Bowman-Birk type proteinase …: DDESSKPCCDQCACTKSNPPQCRCSDMRLNSCHSACKSCICALSYPAQCFCVDITDFCYEPCKPSEDDKEN
modifications: palmityl disulfide conjugate
notes: palmityl disulfide conjugate of BBI, made from thiolated BBI and Pal-PDC
In the case of B1, the “retention of the biological (anti-transformation) activity of BBI” value [1] is reported as “retained the original biological activity of BBI”, the “transformed foci in the dishes scored” value [1] is reported as “one type II focus out of the 20 dishes” and the “Fraction” value [1] is reported as 0.05. The “No. of dishes” value [1] was 1/20, the “Plating Efficiency (%)” value (C3H 10T1/2 cells) was 23 ± 3.0% and the “binding to BSA” value [2] was “binds strongly to BSA”. The “internalization, fold increase over that of BBI” value [2] was 35 fold, the “reduction of uptake after reduction with DTT” value [2] was “approximately 80%” and the “reduction of uptake by defatted-BSA” value [2] was 82%. For the same molecule, the “uptake, fold higher than 125I-BBI” value [2] was “approximately 100 fold”, the “uptake, fold higher than native-BBI” value [2] was 10 fold and the “uptake, fold higher than that of 125I-BBI” value [2] was 80 fold. For the same molecule, the “kidney clearance, fold lower than native-BBI” value [3] was “about 4 fold”, the “liver accumulation, fold higher than BBI” value [3] was “approximately 5 fold” and the “lung accumulation, fold higher than BBI” value [3] was “approximately 2 fold”. For the same molecule, the “retention in the liver at 24 hr” value [3] was “remained high in the liver even at 24 hr post-injection”.

B2: BBIssPal(4): BBI modified with 4 palmitic acids (conjugate, UniProt P01055 40-110, looked up)
Bowman-Birk type proteinase …: DDESSKPCCDQCACTKSNPPQCRCSDMRLNSCHSACKSCICALSYPAQCFCVDITDFCYEPCKPSEDDKEN
modifications: 4 palmityl disulfide groups
notes: BBI modified with 4 palmitic acids
With B2 the “order of the transport extent (cumulative transport)” value (Caco-2 monolayers) was “BBIssPal(4)>BBI>BBIssPal(2)”, the “transcytosis across the monolayers (G50 analysis of basal media)” value (Caco-2 monolayers; basal media at 24 hr) was “neither BBI nor BBIssPal(4) was transcytosed” and the “internalization into the cells (rank)” value (Caco-2 monolayers; same Caco-2 monolayers, per monolayer) was “highest uptake”.

B3: BBIssOleic: oleic acid conjugated BBI, made by the identical procedure as BBIssPal (conjugate, UniProt P01055 40-110, looked up)
Bowman-Birk type proteinase …: DDESSKPCCDQCACTKSNPPQCRCSDMRLNSCHSACKSCICALSYPAQCFCVDITDFCYEPCKPSEDDKEN
modifications: oleic acid disulfide conjugate
notes: oleic acid conjugated BBI, made by the identical procedure as BBIssPal
In the case of B3, the “retention of the biological (anti-transformation) activity of BBI” value [1] is reported as “retained the original biological activity of BBI”, the “transformed foci in the dishes scored” value [1] is reported as “no transformed foci” and the “Fraction” value [1] is reported as 0. The “No. of dishes” value [1] was 0/20, the “Plating Efficiency (%)” value (C3H 10T1/2 cells) was 24 ± 3.5% and the “uptake, fold higher than 125I-BBI” value [2] was “about 108 fold”. For the same molecule, the “blood levels, fold higher than BBI” value [3] was “about 4 fold”, the “kidney clearance, fold lower than native-BBI” value [3] was “about 4 fold” and the “liver accumulation, fold higher than BBI” value [3] was “about 4 fold”. For the same molecule, the “lung accumulation, fold higher than BBI” value [3] was “about 2 fold” and the “retention in the liver at 24 hr” value [3] was “significant levels of the conjugate present in the liver even at 24 hr post-injection”.

B4: BBIssPal(2): BBI modified with 2 palmitic acids (conjugate, UniProt P01055 40-110, looked up)
Bowman-Birk type proteinase …: DDESSKPCCDQCACTKSNPPQCRCSDMRLNSCHSACKSCICALSYPAQCFCVDITDFCYEPCKPSEDDKEN
modifications: 2 palmityl disulfide groups
notes: BBI modified with 2 palmitic acids
With B4 the “order of the transport extent (cumulative transport)” value (Caco-2 monolayers) was “BBIssPal(4)>BBI>BBIssPal(2)”.
